# Source: publication PMC9087215
# B1: dT50 (ssDNA)
# DNA: TTTTTTTTTTTTTTTTTTTTTTTTTTTTTTTTTTTTTTTTTTTTTTTTTT
# Key:
# [1] = biological target: Klebsiella pneumoniae PriA helicase (Klebsiella pneumoniae subsp. pneumoniae MGH 78578) (UniProt A6TGC5)
# PaSSB = PaSSB (Pseudomonas aeruginosa, UniProt P40947 1-165); assay: EMSA
# PaSSB(F60A) = PaSSB(F60A) (Pseudomonas aeruginosa, UniProt P40947 1-165, F60A); assay: EMSA
# PaSSB(W54A) = PaSSB(W54A) (Pseudomonas aeruginosa, UniProt P40947 1-165, W54A); assay: EMSA
# PaSSB(W88A) = PaSSB(W88A) (Pseudomonas aeruginosa, UniProt P40947 1-165, W88A); assay: EMSA
# PaSSB(W40A) = PaSSB(W40A) (Pseudomonas aeruginosa, UniProt P40947 1-165, W40A); assay: EMSA
Molecule,"ATPase activity of KpPriA with 10 μM KpSSBn-StSSBc, fold stimulation [1] [fold]",apparent K (half saturation) (PaSSB) [nM],apparent K (half saturation) (PaSSB(F60A)) [nM],apparent K (half saturation) (PaSSB(W54A)) [nM],apparent K (half saturation) (PaSSB(W88A)) [nM],apparent K (half saturation) (PaSSB(W40A)) [nM]
KpSSBn-StSSBc chimeric protein (from UniProt P0A2F6 92-176),14,,,,,
B1,,355 ± 21,569 ± 24,522 ± 26,1230 ± 61,434 ± 19
